According to publication PMC4158885 (The EMBO Journal, 2014):

Experiments:
[1] = molecular target: ctPan2 PID (Pan3 interaction domain) as used for surface plasmon resonance and isothermal titration calorimetry (Chaetomium thermophilum); assay: SPR; ctPan3 PKC with ctPan2 PID; who was immobilised is not shown (Supplementary Fig S7A–C)
[2] = molecular target: ctPan2 PID (Pan3 interaction domain) as used for surface plasmon resonance and isothermal titration calorimetry (Chaetomium thermophilum); assay: ITC; ctPan3 PKC with ctPan2 PID; low protein concentrations, which limits the accuracy of the Kd
[3] = molecular target: T1, Saccharomyces cerevisiae Pan2 (scPan2), full length, of the recombinant scPan2–Pan3 complex (Saccharomyces cerevisiae, UniProt P53010 1-1115); assay: native MS; nanoESI-MS of the purified recombinant scPan2–Pan3 complex (5.5 mg/ml), buffer-exchanged into 200 mM ammonium acetate pH 8.0; conditions: both partners purified
T1 construct: Pan2, Saccharomyces cerevisiae
T1 sequence (looked up): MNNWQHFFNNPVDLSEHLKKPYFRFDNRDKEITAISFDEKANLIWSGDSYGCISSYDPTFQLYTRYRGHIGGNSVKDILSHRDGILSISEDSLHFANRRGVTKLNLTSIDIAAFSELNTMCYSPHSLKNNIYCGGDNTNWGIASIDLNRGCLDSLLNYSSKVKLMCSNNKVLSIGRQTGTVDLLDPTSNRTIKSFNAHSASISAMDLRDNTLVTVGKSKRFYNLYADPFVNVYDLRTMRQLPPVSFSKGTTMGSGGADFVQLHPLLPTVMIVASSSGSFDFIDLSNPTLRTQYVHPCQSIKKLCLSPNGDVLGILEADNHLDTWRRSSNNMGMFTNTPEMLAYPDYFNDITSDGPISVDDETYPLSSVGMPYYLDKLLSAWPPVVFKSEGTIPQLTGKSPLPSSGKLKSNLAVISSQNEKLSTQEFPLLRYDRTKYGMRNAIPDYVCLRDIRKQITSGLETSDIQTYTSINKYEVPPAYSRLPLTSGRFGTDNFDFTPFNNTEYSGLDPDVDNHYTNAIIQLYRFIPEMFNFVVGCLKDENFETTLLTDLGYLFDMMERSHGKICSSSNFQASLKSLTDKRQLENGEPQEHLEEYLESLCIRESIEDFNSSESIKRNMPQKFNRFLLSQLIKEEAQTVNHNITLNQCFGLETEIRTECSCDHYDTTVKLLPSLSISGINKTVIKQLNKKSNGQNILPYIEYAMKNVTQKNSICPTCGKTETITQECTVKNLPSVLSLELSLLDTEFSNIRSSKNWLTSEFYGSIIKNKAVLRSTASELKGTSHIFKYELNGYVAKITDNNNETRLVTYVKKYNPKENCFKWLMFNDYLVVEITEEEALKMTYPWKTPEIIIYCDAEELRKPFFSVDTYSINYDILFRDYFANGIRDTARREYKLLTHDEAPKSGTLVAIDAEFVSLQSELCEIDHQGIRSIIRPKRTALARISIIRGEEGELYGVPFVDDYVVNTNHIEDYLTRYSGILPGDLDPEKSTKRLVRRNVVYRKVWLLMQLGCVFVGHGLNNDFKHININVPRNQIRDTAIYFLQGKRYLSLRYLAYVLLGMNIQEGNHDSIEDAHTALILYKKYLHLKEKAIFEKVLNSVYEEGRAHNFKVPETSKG

[4] = molecular target: the molecule itself; assay: as above
scPan3 zinc finger [5] = molecular target: T2, scPan3 zinc finger (Saccharomyces cerevisiae, UniProt P36102 1-41); assay: NMR titration; Zn2+; apparent Kd per residue: 62 ± 4, 93 ± 11, 100 ± 13 (peaks of Trp8, Ala9, Asn16); FP: 10 mM Tris pH 8.0, 50 mM NaCl, 1 mM MgCl2, 5 mM beta-mercaptoethanol, 20 nM RNA, temperature not stated; EMSA: deadenylation assay buffer (composition not in material), 0.1-3 uM complex, 40 ng RNA in 10 ul, 15 min RT; NMR: 150 uM protein, 150 uM RNA (HSQC); conditions: protein: recombinant; tags: lipoyl domain/His fusion removed by TEV
T2 chain: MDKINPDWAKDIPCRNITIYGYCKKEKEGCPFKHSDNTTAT

ctPan3 PKC [6] = molecular target: T3, ctPan3 PKC (Chaetomium thermophilum, UniProt G0S0Y3 205-640); assay: fluorescence polarization; 1 mM Mg2+; FP: 10 mM Tris pH 8.0, 50 mM NaCl, 1 mM MgCl2, 5 mM beta-mercaptoethanol, 20 nM RNA, temperature not stated; EMSA: deadenylation assay buffer (composition not in material), 0.1-3 uM complex, 40 ng RNA in 10 ul, 15 min RT; NMR: 150 uM protein, 150 uM RNA (HSQC); conditions: protein: recombinant; tags: GST-TEV construct (pGEX-TEV); chain copies: 2; label: 5' Cy3
T3 sequence: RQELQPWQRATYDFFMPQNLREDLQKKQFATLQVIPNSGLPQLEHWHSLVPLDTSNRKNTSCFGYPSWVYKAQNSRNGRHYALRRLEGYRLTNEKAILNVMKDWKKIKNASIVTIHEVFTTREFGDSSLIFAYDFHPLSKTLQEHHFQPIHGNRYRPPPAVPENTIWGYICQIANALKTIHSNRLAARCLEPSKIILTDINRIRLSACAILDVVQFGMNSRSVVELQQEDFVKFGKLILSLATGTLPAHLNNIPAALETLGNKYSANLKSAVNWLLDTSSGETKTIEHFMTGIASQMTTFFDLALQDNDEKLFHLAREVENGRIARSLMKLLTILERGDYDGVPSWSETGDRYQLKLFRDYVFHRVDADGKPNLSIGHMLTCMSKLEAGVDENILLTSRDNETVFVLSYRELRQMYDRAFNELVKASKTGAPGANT

scPan3 zinc finger [7] = molecular target: T2, scPan3 zinc finger; assay: NMR chemical shift perturbation; Zn2+; negligible changes; FP: 10 mM Tris pH 8.0, 50 mM NaCl, 1 mM MgCl2, 5 mM beta-mercaptoethanol, 20 nM RNA, temperature not stated; EMSA: deadenylation assay buffer (composition not in material), 0.1-3 uM complex, 40 ng RNA in 10 ul, 15 min RT; NMR: 150 uM protein, 150 uM RNA (HSQC); conditions: protein: recombinant; tags: lipoyl domain/His fusion removed by TEV
ctPan3 PKC [8] = molecular target: T3, ctPan3 PKC; assay: fluorescence polarization; 1 mM Mg2+; possible G-quadruplex complicates interpretation; FP: 10 mM Tris pH 8.0, 50 mM NaCl, 1 mM MgCl2, 5 mM beta-mercaptoethanol, 20 nM RNA, temperature not stated; EMSA: deadenylation assay buffer (composition not in material), 0.1-3 uM complex, 40 ng RNA in 10 ul, 15 min RT; NMR: 150 uM protein, 150 uM RNA (HSQC); conditions: protein: recombinant, tags: GST-TEV construct (pGEX-TEV), chain copies: 2, label: 5' Cy3
ctPan2 E899A;ctPan3 PKC = ctPan2 E899A;ctPan3 PKC (Chaetomium thermophilum;Chaetomium …, UniProt G0SAK8;G0S0Y3 1-1170;205-640, E899A|); assay: fluorescence polarization; 1 mM Mg2+; FP: 10 mM Tris pH 8.0, 50 mM NaCl, 1 mM MgCl2, 5 mM beta-mercaptoethanol, 20 nM RNA, temperature not stated; EMSA: deadenylation assay buffer (composition not in material), 0.1-3 uM complex, 40 ng RNA in 10 ul, 15 min RT; NMR: 150 uM protein, 150 uM RNA (HSQC); conditions: protein: recombinant;recombinant; tags: Strep-II, His;GST-TEV construct (pGEX-TEV); copies: 1;2; label: 5' Cy3

Molecule: ctPan3 pseudokinase/C-terminal domain (PKC, residues 205–640), purified from E. coli (from UniProt G0S0Y3 205-640) (domain or fragment)
- Kd [1]: 10 nM
- Kd [2]: 50 nM
- dH [2]: -30 kcal/mol
- stoichiometry N (Pan2 chain per Pan3 dimer) [2]: 1

B1: Saccharomyces cerevisiae Pan3 (scPan3), full length, of the recombinant scPan2–Pan3 complex (natural protein, UniProt P36102 1-679, looked up)
chain: MDKINPDWAKDIPCRNITIYGYCKKEKEGCPFKHSDNTTATTINDVPPPIDVGEATTPTMTSVPKFNAKVSASFTPMTVGSDSLTTVTNTTSAATNATGNIAMAATSATASTVNPMINPIVNSSLVNNNNNNSNISISIPTTASSSNYDPFNAPIFTPSSTSSIHTNANAHSFPFPSIANSGGININATDDNSNNMSMANNVPPPMQPPPIESSNLKYPRIYPPPHSLLQYHLYAPEQPSSLKSLLKPNERSADQLFIPNNIREDLTKKNLSILQVFPSSGKVIPSIVQDYFNLVPLNFNNNDFLNKTTLFKVFSNYDGKAYVLKRLPNIDKSMNPNKISKIYQIWSKINCTNLIKFRDIFQTTKFGDLSICLVFDYYPNSLSLYDYHFVNFPKFPITNNYLWIYLVQLTNVINSIHSQNLSIGNTLNWRKVLITGDPGRIKLSHCNFMDLLFNDDTDTVVSSGGSTIEGQQQLDYKYLGELLFNLSINIENSNNNTAPKEYRLEEITPQSIDDMRQIDDKFKDVLKYLISDNGDSKKSIHDLTSHFYDKMFMVLESSQTYTEYMESVLSRELENGRLFRLVNKLNCIFGRIESRIDINWSESGTKFPIILFYDYVFHQVDSNGKPIMDLTHVLRCLNKLDAGIQEKLMLVTPDELNCIIISYKELKDLIESTFRSITQ
notes: Pan3, Saccharomyces cerevisiae; Two copies stand in the scPan2–Pan3 heterotrimer by nanoESI-MS
- stoichiometry N [3]: 2 scPan3 per scPan2
- binding result [4]: binds

Molecule: AAAAAAAAAAAAAAA (ssRNA) [polyA15 RNA (NMR)]
- Kd (scPan3 zinc finger [5]): ~77500 nM

Molecule: AAAAAAAAAAAAAAA (ssRNA) [Cy3-A15 RNA]
- Kd (ctPan3 PKC [6]): 2100 ± 1400 nM

Molecule: CCCCCCCCCCCCCCC (ssRNA) [C15 RNA (NMR)]
- binding result (scPan3 zinc finger [7]): no binding

Molecule: UUUUUUUUUUUUUUU (ssRNA) [U15 RNA (NMR)]
- binding result (scPan3 zinc finger [7]): no binding

Molecule: CCCCCCCCCCCCCCC (ssRNA) [Cy3-C15 RNA]
- Kd (ctPan3 PKC [6]): 2200 ± 1700 nM

Molecule: GGGGGGGGGGGGGGG (ssRNA) [Cy3-G15 RNA]
- Kd (ctPan3 PKC [8]): 550 ± 50 nM

Molecule: UUUUUUUUUUUUUUU (ssRNA) [Cy3-U15 RNA]
- Kd (ctPan3 PKC [6]): 1600 ± 600 nM

Molecule: AAAAAAAAAAAAAAAAAAAAAAAAA (ssRNA) [Cy3-A25 RNA]
- Kd (ctPan3 PKC [6]): 620 ± 60 nM
- Kd (ctPan2 E899A;ctPan3 PKC): 270 ± 20 nM
